Measured values from the nanobody polyreactivity screen of Harvey et al. (2022).

Assay: yeast display, Sf9 membrane polyspecificity reagent, FACS + sequencing; frameworks hold sequencing errors
How it was run: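 After 36–48 hours of galactose induction, yeast (Saccharomyces cerevisiae BJ5465) displaying a synthetic nanobody library were stained at 4 °C for 1 hour with 10% biotinylated, detergent-solubilized Sf9 membrane reagent. Streptavidin microbeads enriched the stained cells before FACS sorting into low and high (top ~1%) gates on anti-HA and streptavidin fluorescence. Each clone's polyreactivity label reflects its gate of origin.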

## QVQLVESGGGLVQAGGSLRLSCAASGSIFRYYAMGWYRQAPGKERELVAAITWRGGGTYYADSVKGRFTISRDNAKNTVYLQMNSLKPEDTAVYYCAKARFTRGTWFYYWGQGTQVTVSS
  polyreactivity (PSR sort gate): high polyreactivity

## QVQLVESGGGLVQAGGSLRLSCAASGSIFRYYAMGWYRQAPGKERELVARISRNAGRTYYADSVKGRFTISRDNAKNTVYLQMNSLKPEDTAVYYCAADGSKPYAMDYWGQGTQVTVSS
  polyreactivity (PSR sort gate): high polyreactivity

## QVQLVESGGGLVQAGGSLRLSCAASGSIFRYYAMGWYRQAPGKERELVATISSGGRTYYADSVKGRFTISRDNAKNTVYLQMNSQKPEDTAVYYCAARYGTTRYGFDYWGQGTQVTVSS
  polyreactivity (PSR sort gate): high polyreactivity

## QVQLVESGGGLVQAGGSLRLSCAASGSIFRYYDMGWYRQAPGKERELVAAISYSDGRTYYADSVKGRFTISRDNAKNTVYLQMNSLKPEDTAVYYCAAETLYVSPYFFVVQYDYWGQGTKVTVSS
  polyreactivity (PSR sort gate): high polyreactivity

## QVQLVESGGGLVQAGGSLRLSCAASGSIFSANAMGWYRQAPGKERELVAAITSGDSTKYADSVKGRFTISRDNAKNTVYLQMNSLKPEDTAVYYCAVDRGEYKNRVGEEYWGQGTQVTVSS
  polyreactivity (PSR sort gate): low polyreactivity

## QVQLVESGGGLVQAGGSLRLSCAASGSIFSAYAIGWYRQAPGKERELDAAITKSSVTYYADSVKGRFTISRDNAKNSVYLHMNSLKPEDTAVYYCAAASGGTVVGEVDYWGQGTQVTVSS
  polyreactivity (PSR sort gate): low polyreactivity

## QVQLVESGGGLVQAGGSLRLSCAASGSIFSAYAMGWYIQAPGKERELVAGITGSGGRTYYADSVKGRFTISRDNAKNTVYLQMNSLKPEDTAVYYCLARSYYNWYDYWGQGTQVTVSS
  polyreactivity (PSR sort gate): high polyreactivity

## QVQLVESGGGLVQAGGSLRLSCAASGSIFSDYAIGWYSTAPGKERELVASISWTGGGTYYADSVKGRFTISRDNAKNTVYLQMNSVKPEDTGFYYCAAEYSYIMDFWGQGTQVTVSS
  polyreactivity (PSR sort gate): high polyreactivity

## QVQLVESGGGLVQAGGSLRLSCAASGSIFSDYAMGWYRQAPGKERELVAAITQSGVSTYADSVKGRFTISRDNAKNTVYLQMNSLKPEDTAVYYCAADEVPGFGYPPYPWFDYWGQGTQVTVSS
  polyreactivity (PSR sort gate): low polyreactivity

## QVQLVESGGGLVQAGGSLRLSCAASGSIFSENTMGWYRPAPGKKRELVADITSGGSTNYADSVKGRFTISRDNAKKTVYLQMNSLKPEDTAVYYCAADYNGEYDYWGLGTQVTVSS
  polyreactivity (PSR sort gate): low polyreactivity

## QVQLVESGGGLVQAGGSLRLSCAASGSIFSFNVMGWYRQAPGKERELVATITGGGSTNYADSVKGRFTISRDNAKNTVYLQMNSLIPEDTAVYYCAARPVNGGILEYWGQGTQVTVSS
  polyreactivity (PSR sort gate): low polyreactivity

## QVQLVESGGGLVQAGGSLRLSCAASGSIFSFYTMGWYRQAPGKERELVAAINWSGSRTYYADSVKGRFTISRDNAKKTVYLQMNSLNPEDTAVYYCAARKYYSRAYDYWGQGTQVTVSS
  polyreactivity (PSR sort gate): high polyreactivity

## QVQLVESGGGLVQAGGSLRLSCAASGSIFSGNAMGWYRQAPGKERELVAAISRSGGSTYYADSVKGRFTISRDYAKNTVYLQMNSLKPEDTAVYYCAKGQYYYIGDYDYWGQGTQVTVSS
  polyreactivity (PSR sort gate): high polyreactivity

## QVQLVESGGGLVQAGGSLRLSCAASGSIFSGYAMGWYRQAPGKERELVAAISRRGTSTYYADSVKGRFTISRDNAKNTVYLQMNSLKPEDTAVYYCAATYGGRQSYGGFDYWGQGTQVTVSS
  polyreactivity (PSR sort gate): high polyreactivity

## QVQLVESGGGLVQAGGSLRLSCAASGSIFSGYAMGWYRQAPGKERELVAAITRSGGRTYYADSVKGRFTISRDNAKNTVYLQMNSLKPEDTAVYYCAARGGPGDDYWGQGTQVTVSS
  polyreactivity (PSR sort gate): high polyreactivity

## QVQLVESGGGLVQAGGSLRLSCAASGSIFSGYVMGWYRQAPGKERELVAAIDNSSGSTYYADSVKGRFTISRDNAKNSVYLQMNSLKPEDTAVYYCAAAYYWKAYSEYDYWGQGTQVTVSS
  polyreactivity (PSR sort gate): low polyreactivity

## QVQLVESGGGLVQAGGSLRLSCAASGSIFSHNAMGWYRQAPGKERELVAAISWSAASTYYADSVKGRFTISRDNAKNTVYLQMNSLKPEDTAVYYCAAVPYSSTYRYDYWGQGTQVTVSS
  polyreactivity (PSR sort gate): low polyreactivity

## QVQLVESGGGLVQAGGSLRLSCAASGSIFSHNVMVWYRQAPGKERELVAAISGGGGRTYYADSVKGRFTISRDNAKNTVYLQMNSLKAEDTAVYYCNAYVGLSEGDYWGQGTQVSVSS
  polyreactivity (PSR sort gate): high polyreactivity

## QVQLVESGGGLVQAGGSLRLSCAASGSIFSIYAMGWYRQAPGKERDFVASITVTDGSTYYADSVKGRFTISRDNAKNTVYLQMNSLKPEDTAVYYCYADGWYALYEWLAVSGYYWGQGTQVTVSS
  polyreactivity (PSR sort gate): low polyreactivity

## QVQLVESGGGLVQAGGSLRLSCAASGSIFSIYAMGWYRQAPGKERELVAAISWSGGSTYYADSVKGRFTISRDTAKITVYLQMNSLKPEDTAVYYCAAEYEYMWSQYLTEYGYDYWGQGTQVTVSS
  polyreactivity (PSR sort gate): low polyreactivity

## QVQLVESGGGLVQAGGSLRLSCAASGSIFSKNAMGWYRQAPGKERELVAAISSSGGITYYADSVKVRFTISRDNANNTVYLQMNSLKPEDTAFYYCATLGGAIRQAFEYWGQGTQVNVSS
  polyreactivity (PSR sort gate): low polyreactivity

## QVQLVESGGGLVQAGGSLRLSCAASGSIFSKYAMGRYRPAPGKERELVAAISRRGGDTYYADSVKGRFTISRDNAKNTVYLQMNSLKPEDTAVYYCAAYQYYLYDYWGQGTQVTVSS
  polyreactivity (PSR sort gate): high polyreactivity

## QVQLVESGGGLVQAGGSLRLSCAASGSIFSKYAMGWYRPAPGKERELVAAIASSGGSTYYADSVKGRFTISRDNAKNTVYFQMNSLKPEDTAVYYCAAGGRSVRYNYWGQGTQVTVSS
  polyreactivity (PSR sort gate): high polyreactivity

## QVQLVESGGGLVQAGGSLRLSCAASGSIFSKYAMGWYRQAPGKERELVAAITFRSGSTYYADSVKGRFTISRDNAKNTVYLQMNSLKPEDTAVYYCAADEYYQVSAYDYWGQGTQVTVSS
  polyreactivity (PSR sort gate): low polyreactivity

## QVQLVESGGGLVQAGGSLRLSCAASGSIFSKYAMGWYRQAPVKERELVAAIDWSGGSTYYADSVKGRFTISRDNAKNTVYLQMNSLKPEDTAVYYCNAEYVVADYGYYTIEFDYWGQGTQVTVSS
  polyreactivity (PSR sort gate): low polyreactivity

## QVQLVESGGGLVQAGGSLRLSCAASGSIFSKYTMGWYRQAPGKERELVAAISRAGSTYYADSVKGRFTISRDNAKNTVYLQMNSLKPEDTAVYYCAAEWSDSVYYSYEYWGQGTQVTVSS
  polyreactivity (PSR sort gate): high polyreactivity

## QVQLVESGGGLVQAGGSLRLSCAASGSIFSKYVMGWYRQAPGKQTELVAAISWSGTRTYYADSVKGRFTISRDNAKNTVYLQMNSLKPEDTAVYYCAALRLYAGHQYDYWGQGTQVTVSS
  polyreactivity (PSR sort gate): high polyreactivity

## QVQLVESGGGLVQAGGSLRLSCAASGSIFSLYAMGWYRQAPGKERELVATISKSGGSTYYADSVKGRFTISRDNAKNTVYLQMNSLKPEDTAVYYCAARLTYTGGQGAYDYWGQGTQVTVSS
  polyreactivity (PSR sort gate): high polyreactivity

## QVQLVESGGGLVQAGGSLRLSCAASGSIFSLYTMGWYRQAPGKERELVARITTSGGTTRYADSVKGRFTISRDTSKNTVYLQMISLKPEDTAVYYCAADRSPFWRGYVRYNYWGQGTQVTVSS
  polyreactivity (PSR sort gate): high polyreactivity

## QVQLVESGGGLVQAGGSLRLSCAASGSIFSLYTMGWYRQAPGKERELVATIRSVGSTNYADSVKGRFTISRDNAKNTVYLQMNSLKPEDTAVYYCAAGWYYGVYYIYDYWGQGTQVNVSS
  polyreactivity (PSR sort gate): high polyreactivity

## QVQLVESGGGLVQAGGSLRLSCAASGSIFSNNAMGWYRPAPGKERELVAAITRSGGNTYYADSVKGRFTISRDNAKNTVYLQMNSLKPEDTAVYYCAASNSHVGPNDYWGQGTQVTVSS
  polyreactivity (PSR sort gate): high polyreactivity

## QVQLVESGGGLVQAGGSLRLSCAASGSIFSNYDMGWYRQAPGKERELVAGITRSGTNTYYADSVKGRFTISRDNAKNTVYLKMNRLKPEDTAVYYCAAAIRPGMDYWGQGTQVTVSS
  polyreactivity (PSR sort gate): high polyreactivity

## QVQLVESGGGLVQAGGSLRLSCAASGSIFSPNDMGWYRPAHGKERELVAAITSAGSTFYADSVKGRFTISRDNAKNTVYIQMNSLKPEDTAVDYCSATYISVTDYAYFPLWYGYWGQGTQVTVSS
  polyreactivity (PSR sort gate): low polyreactivity

## QVQLVESGGGLVQAGGSLRLSCAASGSIFSPYAMGWYRQAPGKERELVAAISFRASTTYYADSVKGRFTISRDNAKNTVYLQMNSLKPEYTAVYYCAKKRPGFLRYGSIGEFQYDYWGQGTQVTVSS
  polyreactivity (PSR sort gate): low polyreactivity

## QVQLVESGGGLVQAGGSLRLSCAASGSIFSQYAMGWYRQAPGKERELVAAITYGGGSTYYADSVKGRFTISRDNAKNTVYLQMNCLKAEDTALYYCAKEFKYWGYPYDYWGQGTQVTVSS
  polyreactivity (PSR sort gate): low polyreactivity

## QVQLVESGGGLVQAGGSLRLSCAASGSIFSRNAMGWYRPAPGKERELVAAITSSGGRTYYADSVKGRFTISRDNAKNTVYLQMNSLKPEDTAVYYCAARARGGDWGSGDYWGQGTQVTVSS
  polyreactivity (PSR sort gate): high polyreactivity

## QVQLVESGGGLVQAGGSLRLSCAASGSIFSRNAMGWYRQAPGKERELVAAISYSGGTTYYADSVKGRFTISRDYAKNTVYLQMNSLKPEDTAVYYCNKRYWVRTGKVSSYDYWGQGTQVSVSS
  polyreactivity (PSR sort gate): high polyreactivity

## QVQLVESGGGLVQAGGSLRLSCAASGSIFSRNAMGWYRQAPGKERELVAAISYSSGSTYYADSVKGRFTISRDHAKNTVYLQMNSLTPEDTAVYYCAADTTKLQGVEGDYWGQGTQVTVSS
  polyreactivity (PSR sort gate): low polyreactivity

## QVQLVESGGGLVQAGGSLRLSCAASGSIFSRNAMGWYRQAPGKERELVAAITRSGGRTYYADSVKGRFTISRDNAKNTVYLQMNSLKPEDTAVYYCNALASQEYDYWGQGTQVTVSS
  polyreactivity (PSR sort gate): high polyreactivity

## QVQLVESGGGLVQAGGSLRLSCAASGSIFSRNAMGWYRQAPGKVRELVAAITGSGSSTYYADSVKGRFTISRDNAKNTVYLQMNSLKPEDTAVYYCAKGSWWGYYSYGFDYWGQGTQVTVSS
  polyreactivity (PSR sort gate): high polyreactivity

## QVQLVESGGGLVQAGGSLRLSCAASGSIFSRNDMGWYRQAPGKERELVAAITSDDTSTYYADSVNGRFTISRDNAKNTVYLQMNSLKPEDTAVYYCAADYGNPFDYWGQGTQVTVSS
  polyreactivity (PSR sort gate): low polyreactivity

## QVQLVESGGGLVQAGGSLRLSCAASGSIFSRNTMGWYRQAPGKERELVAGISSSGSRTYYADSVKGRFTISRDNAKYTVYLQMNSLKPEDTAVYYCAAEHQRSRGRRYYIGYDYWGQGTQVTVSS
  polyreactivity (PSR sort gate): low polyreactivity

## QVQLVESGGGLVQAGGSLRLSCAASGSIFSRNTMGWYRQAPGKERELVATITSGSNTNYADSVKGRFTISRDNAKNTVYLQMNSLKPEDTAVYYWGQGTQVTVSS
  polyreactivity (PSR sort gate): low polyreactivity
